These results are taken from patent publication US11306156.

What is called Kd is the equilibrium constant for the complex coming apart.

Experiment [1] addresses D3H44 light chain Q124E_Q160E_T180E_C214S. The experiment is described as follows: LCCA, SPR tag readout, L1:L2 DNA 1:3 normalized to 1:1; competitor m20.
Experiment [2] has as its target D3H44 light chain P44F_S131K. Description: LCCA, SPR tag readout, L1:L2 DNA 1:3 normalized to 1:1; competitor m22.
The target in experiment [3] is D3H44 light chain Q124E_Q160E_T180E_C214S. The experiment is described as follows: LCCA, SPR tag readout, L1:L2 DNA 1:9 normalized to 1:1; competitor m20.
Experiment [4] has as its target D3H44 light chain P44F_S131K. Description: LCCA, SPR tag readout, L1:L2 DNA 1:9 normalized to 1:1; competitor m22.
For experiment [5], the target named is D3H44 light chain Q38R_S131K. Description: LCCA, SPR tag readout, L1:L2 DNA 1:3 normalized to 1:1; competitor m19.
Experiment [6] deals with D3H44 light chain Q38E_Q124E_Q160E_T180E. Description: LCCA, SPR tag readout, L1:L2 DNA 1:3 normalized to 1:1; competitor m21.
Experiment [7] deals with D3H44 light chain Q38R_S131K. Description: LCCA, SPR tag readout, L1:L2 DNA 1:9 normalized to 1:1; competitor m19.
Experiment [8] addresses D3H44 light chain Q38E_Q124E_Q160E_T180E. Description: LCCA, SPR tag readout, L1:L2 DNA 1:9 normalized to 1:1; competitor m21.
Experiment [9] addresses D3H44 light chain Q124E_T180E (Kabat), N-terminal HA or FLAG tag. The experiment is described as follows: LCCA co-expression, competing light chain m36, L1:L2 DNA 1:3 normalized to 1:1, SPR tag read-out.
In experiment [10] the target is D3H44 light chain S131K (Kabat), N-terminal HA or FLAG tag. The experiment is described as follows: LCCA co-expression, competing light chain m37, L1:L2 DNA 1:3 normalized to 1:1, SPR tag read-out.
The target of experiment [11] is tissue factor (TF) antigen (UniProt P13726). Description: SPR, Fab captured on anti-penta-His, TF as analyte, 1:1 fit.
The target is the same in experiment [12]. The experiment is described as follows: SPR, Fab captured on anti-penta-His, TF as analyte; against wild-type D3H44 Fab. Background: In SPR one partner is held on a chip, and binding of the other changes the refractive index at the surface.
For experiment [13] the target is unchanged. The experiment is described as follows: SPR (ProteOn XPR36), Fab captured on anti-penta His surface, TF injected, 1:1 fit.
Experiment [14] shares this target. The experiment is described as follows: SPR (ProteOn XPR36), Fab captured on anti-penta His surface, TF injected, 1:1 fit; reference wild-type D3H44 Fab.
For experiment [15] the target is unchanged. Description: SPR (ProteOn XPR36), Fab captured on anti-penta His surface, TF injected, 1:1 fit; batch C ('+').
For experiment [16] the target is unchanged. The experiment is described as follows: SPR (ProteOn XPR36), Fab captured on anti-penta His surface, TF injected, 1:1 fit; batch C ('+'); reference wild-type D3H44 Fab.
For experiment [17] the target is unchanged. The experiment is described as follows: SPR as for KD; reference: wild-type D3H44 Fab; batch C (+).
Experiment [18] shares this target. The experiment is described as follows: SPR, Fab captured on anti-penta His surface, TF as analyte, 1:1 fit.
The target is the same in experiment [19]. The experiment is described as follows: SPR, ProteOn XPR36; His-tagged Fab captured on anti-penta-His, TF injected; 1:1 fit; batch C (+).
Experiment [20] has the same target. Description: SPR, Fab captured on anti-penta-His, TF as analyte, 1:1 fit; estimated value from Fab differing only in L chain tag.
Experiment [21] has the same target. Description: vs wild-type D3H44 Fab (estimated wt KD […]); SPR; estimated (*) from Fab differing only in L chain tag.
Experiment [22] has the same target. The experiment is described as follows: SPR, Fab captured on anti-penta-His, TF as analyte, 1:1 fit; estimated (*) from Fab differing only in L chain tag.

For “D3H44 Fab heavy chain L45P_K145T_H172R_Q179E”, the H1L1:H1L2 normalized median ratio in [1] came to 6%; in [2], 94%; in experiment [3] it was 8%; in [4] it was 92%. The H2L2:H2L1 normalized median ratio in experiment [1] amounted to 6%; in experiment [2], 94%; in [3] it was 8%; in experiment [4] it was 92%. Also, the figures for the H1L1:H1L2 normalized median scalar value ln(r1/f1) in experiment [2] and in [4] were 2.78 and 2.42, respectively.

In the case of “D3H44 Fab heavy chain Q39E_K145T_H172R_Q179E”, the H1L1:H1L2 normalized median ratio in experiment [5] was determined as 93%; in [6] it was 7%; in [7], 89%; in experiment [8], 11%. Besides, the H1L1:H1L2 normalized median scalar value ln(r1/f1) in experiment [5] came out at 2.53; in [7] it was 2.09.

Turning to D3H44 Fab heavy chain Q39E_K145T_Q179E, the H1L1:H1L2 normalized median ratio in experiment [5] amounted to 93%; in experiment [6] it was 7%; in [7], 90%; in [8], 10%. The substance further returned an H1L1:H1L2 normalized median scalar value ln(r1/f1) in [7] of 2.16.

With D3H44 Fab heavy chain Q39R_H172R_S186R, the H2L2:H2L1 normalized median ratio in experiment [5] amounted to 6%; in experiment [6], 94%; in experiment [7], 7%; in [8], 93%.

With D3H44 Fab heavy chain Q39R_S186R, the H2L2:H2L1 normalized median ratio was determined as 4% in experiment [5], 96% in experiment [6], 4% in experiment [7] and 96% in experiment [8].

“D3H44 Fab heavy chain S186R (Kabat), C-terminal ABD2-His6 tag”: the H2L2:H2L1 normalized median ratio in experiment [9] is 96 of 100; in experiment [10], 4 of 100.

The substance “D3H44 Fab heterodimer, H1 L45P_L143E_K145T_Q179E / L1 P44F_Q124R_Q160K_T178R (H1L1 Fab of LCCA Set # 9754)” registered a Kd in experiment [11] of 0.3 nM. In addition, in experiment [12], the change in median KD compared to wild type, -(log(KD design)-log(KD wt)) is -0.28.

As for “D3H44 Fab heterodimer, H1 L124A_L143F_Q179K / L1 Q124E_V133W_S176T_T178L_T180E (H1L1 Fab of LCCA Set # 9096, 9095 and 9094)”, in [11], the Kd came out at 0.17 nM. In addition, the change in median KD compared to wild type, -(log(KD design)-log(KD wt)) in experiment [12] was -0.04.

In the case of “D3H44 Fab heterodimer, H1 L124R_Q179K / L1 Q124E_V133G_S176D_T178E_T180E (H1L1 Fab of LCCA Set # 9388)”, the Kd in experiment [13] was 0.22 nM. In addition, in experiment [14], the Change in median values of KD of h1l1 Fab heterodimer compared to wild type (-(log(KD design)-log(KD wt))) was -0.15.

“D3H44 Fab heterodimer, H1 L124R_Q179K / L1 Q124E_V133G_S176D_T178E_T180E (H1L1 Fab of LCCA Set # 9392, 9394, 9395, 9376, 9380 and 9384)” displayed a Kd in experiment [11] of 0.22 nM. Further, in experiment [12], the change in median KD compared to wild type, -(log(KD design)-log(KD wt)) was -0.15.

The substance “D3H44 Fab heterodimer, H1 L124R_S186K / L1 Q124E_V133G_S176D_T178D_T180E (H1L1 Fab of LCCA Sets # 9451, 9459, 9460, 9461, 9449)” yielded a Kd in [13] of 0.26 nM. Besides, in experiment [14], the Change in median values of KD of h1l1 Fab heterodimer compared to wild type (-(log(KD design)-log(KD wt))) is -0.23.

“D3H44 Fab heterodimer, H1 L124R_S186K / L1 V133G_S176D_T178D_T180E (H1L1 Fab of LCCA Set # 9471 and 9473)” displayed a Kd in experiment [11] of 0.18 nM. For the same substance, in [12], the change in median KD compared to wild type, -(log(KD design)-log(KD wt)) was -0.07.

“D3H44 Fab heterodimer, H1 L124R_S186K / L1 V133G_S176D_T178D_T180E (H1L1 Fab of LCCA Sets # 9484, 9481, 9483)” registered a Kd in experiment [13] of 0.18 nM. Moreover, the Change in median values of KD of h1l1 Fab heterodimer compared to wild type (-(log(KD design)-log(KD wt))) in experiment [14] was -0.07.

Regarding “D3H44 Fab heterodimer, H1 Q39R_H172R_S186R / L1 Q38E_Q124E_Q160E_T180E (H1L1 Fab of LCCA Set # 9824)”, the Kd in experiment [15] was found to be 0.15 nM. The substance further had a Change in median values of KD of h1l1 Fab heterodimer compared to wild type (-(log(KD design)-log(KD wt))) in [16] of 0.03.

In [15], “D3H44 Fab heterodimer, H1 Q179K / L1 Q124E_S131T_T178F_T180E (H1L1 Fab of LCCA Sets # 9778, 9777)” gave a Kd of 0.12 nM. In experiment [16], this substance yielded a Change in median values of KD of h1l1 Fab heterodimer compared to wild type (-(log(KD design)-log(KD wt))) of 0.13.

Consider “D3H44 Fab heterodimer, H1 Q179R / L1 S131E (H1L1 Fab of LCCA Set # 9984)”, for which, in experiment [15], the Kd was 0.16 nM. In addition, in [16], the Change in median values of KD of h1l1 Fab heterodimer compared to wild type (-(log(KD design)-log(KD wt))) was 0.

In [15], “D3H44 Fab heterodimer, H1 S186K / L1 Q124E_T178E_T180E (H1L1 Fab of LCCA Set # 9852)” returned a Kd of 0.15 nM. This substance showed a Change in median values of KD of h1l1 Fab heterodimer compared to wild type (-(log(KD design)-log(KD wt))) in experiment [16] of 0.02.

For “D3H44 Fab heterodimer, H1L1 of LCCA Set # 9611 (H1 L143E_K145T_H172R; L1 Q124R_Q160K_T178R)”, the change in median KD compared to wild type, -(log(KD design)-log(KD wt)) in [17] was found to be 0.12. In experiment [18], the Change in KD with respect to wild type (-(log(KD design) - log(KD wt))) was 0.12. In addition, the Kd in [18] and in experiment [19] was 0.12 nM in each case.

As for “D3H44 Fab heterodimer, H1L1 of LCCA Sets # 9807 and 9808 (H1 Q179R; L1 Q124E_S176L_T180E)”, the change in median KD compared to wild type, -(log(KD design)-log(KD wt)) in [17] is -0.02. In [19], this substance registered a Kd of 0.17 nM.

As for “D3H44 Fab heterodimer, H1L1 of LCCA Sets # 9881 and 9882 (H1 S186R; L1 Q124E_S131T_T178F_T180E)”, the change in median KD compared to wild type, -(log(KD design)-log(KD wt)) in experiment [17] amounted to 0.15. This substance also had a Kd in experiment [19] of 0.11 nM.

For “D3H44 Fab heterodimer, H L124E_L143E_K145T / L Q124K_V133G_S176R_T178K”, in experiment [20], the Change in KD with respect to wild type (-(log(KD design) - log(KD wt))) is -0.12 and the Kd is 0.21 nM.

“D3H44 Fab heterodimer, H L124E_L143E_K145T / L Q124K_V133G_S176R_T178R”: in [20], the Change in KD with respect to wild type (-(log(KD design) - log(KD wt))) is -0.07 and the Kd is 0.18 nM.

In the case of “H1L1 Fab heterodimer of LCCA set 9623 (D3H44 Fab, H1 L143E_K145T_Q179D, L1 Q124R_Q160K_T178R; L chain tag differs from the measured Fab)”, the change in median KD compared to wild type, -(log(KD design)-log(KD wt)) in experiment [21] is 0.39. For the same substance, in experiment [22], the Kd was 0.06 nM.

Regarding “H1L1 Fab heterodimer of LCCA set 9651 (D3H44 Fab, H1 L143E_K145T_Q179E, L1 Q124R_Q160K_T178R; L chain tag differs from the measured Fab)”, the change in median KD compared to wild type, -(log(KD design)-log(KD wt)) in [21] is 0.02. The Kd in experiment [22] was 0.15 nM.

As for “H1L1 Fab heterodimer of LCCA sets 9140, 9142, 9144 and 9146 (D3H44 Fab, H1 L124E_K145T_Q179E, L1 S131K_V133G_S176R; L chain tag differs from the measured Fab)”, the change in median KD compared to wild type, -(log(KD design)-log(KD wt)) in experiment [21] is 0. Moreover, the Kd in [22] is 0.16 nM.

As to “H1L1 Fab heterodimer of LCCA sets 9663 and 9666 (D3H44 Fab, H1 L143E_K145T_Q179E, L1 Q124R_T178R; L chain tag differs from the measured Fab)”, in [21], the change in median KD compared to wild type, -(log(KD design)-log(KD wt)) was -0.23. Moreover, the Kd in experiment [22] is 0.27 nM.
